Laboratory results as given in publication PMC10115415.

Legend:
[1] = biological target: MLL1 third plant homeodomain (PHD3) (UniProt Q03164); test: ITC; conditions not given (table S1, fig. S2)
[2] = biological target: Cyp33 RRM∆α/MLL1 PHD3 complex (UniProt Q9UNP9); test: ITC; conditions not given (table S1, fig. S2)
[3] = biological target: Histone H3 H3K4me3 (Homo sapiens) (UniProt P68431); conditions: cited from earlier work
H3(1-13)K4me3 peptide = test: ITC; conditions: NMR titrations: 20 mM KHPO4 pH 7, 40 mM KCl, 1 mM DTT, 289.15 K as printed (table S2 says 298.15 K for Kd); structures of complexes: 40 mM KCl, 20 mM KH2PO4 pH …

Chain of MLL1 third plant homeodomain (PHD3) (Q03164 1564-1627): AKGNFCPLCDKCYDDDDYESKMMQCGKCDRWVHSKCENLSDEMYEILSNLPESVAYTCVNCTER
Chain of MLL1 PHD3-BRD (Q03164 1566-1784): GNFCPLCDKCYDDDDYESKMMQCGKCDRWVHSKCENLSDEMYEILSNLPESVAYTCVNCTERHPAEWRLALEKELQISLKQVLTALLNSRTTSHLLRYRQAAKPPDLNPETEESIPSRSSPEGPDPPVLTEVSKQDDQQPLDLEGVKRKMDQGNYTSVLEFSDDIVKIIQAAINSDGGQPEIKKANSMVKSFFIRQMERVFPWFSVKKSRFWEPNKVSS

Row | Substance | Kd [1] [µM] | also measured
1 | Cyp33 K83A mutant | 7 | –
2 | Cyp33 KRK83-88A triple mutant | 7 | –
3 | Cyp33 RK86-88A double mutant | 7 | –
4 | Cyp33 RNA recognition motif (RRM) with the C-terminal extension (α3 helix) (from UniProt Q9UNP9 1-114) (domain or fragment) | 4.6 | –
5 | Cyp33 W101A, L102A, F105A triple mutant (Cyp33-WLF) | 7 | –
6 | Histone H3 lysine N6-trimethylated peptide (H3K4me3) (from UniProt P68431 2-14) | – | Kd [2]: 24 µM
7 | MLL1 PHD3-BRD (from UniProt Q03164) | – | Kd [3]: 4 µM
8 | UAAUGUUAAUGUUAAUGUUAAUGU [4x UAAUGU repeat RNA] | – | Kd (H3(1-13)K4me3 peptide): 30 µM
